Experimental data taken from the DeepSol protein solubility set.

Assay: soluble on expression in E. coli; label from the status in PepcDB or PDB records

| Sequence | soluble on expression in E. coli |
| --- | --- |
| TDQGSTGIYYISIEGLVYPIRLEKEYINSFSLSPDEQHFIASVTKPDRPSELYSIPLGQEEKQLTGANDKFVREHTISIPEEIQYATEDGVMVNGWLMRPAQMEGETTYPLILNIHGGPHMMYGHTYFHEFQVLAAKGYAVVYINPRGSHGYGQEFVNAVRGDYGGKDYDDVMQAVDEAIKRDPHIDPKRLGVTGGSYGGFMTNWIVGQTNRFKAAVTQRSISNWISFHGVSDIGYFFTDWQLEHDMFEDTEKLWDRSPLKYAANVETPLLILHGERDDRCPIEQAEQLFIALKKMGKETKLVRFPNASHNLSRTGHPRQRIKRLNYISSWFDQHL | not soluble |
| SMSYESPFHLNDAVAIVTGAAAGIGRAIAGTFAKAGASVVVTDLKSEGAEAVAAAIRQAGGKAIGLECNVTDEQHREAVIKAALDQFGKITVLVNNAGGGGPKPFDMPMSDFEWAFKLNLFSLFRLSQLAAPHMQKAGGGAILNISSMAGENTNVRMASYGSSKAAVNHLTRNIAFDVGPMGIRVNAIAPGAIKTDALATVLTPEIERAMLKHTPLGRLGEAQDIANAALFLCSPAAAWISGQVLTVSGGGVQELD | soluble |
| MSLRYIYFFGRKINLSERDKIFRDITSKYKCIHDLRCAFDHTEISSFENIDFNIIDDYLFYIELNEKSYTFNDGISLMVQERFWEAHEALEQLWRHSNGLEKSTLRFIIMVCTAFVHLQRGHYSIYHEVMENALKIDTYNEYKCINIKSLKSEIRSGIFNTYFFIKSLKEGHHHHHH | soluble |
| SGLYRIRVSTGASLYAGSNNQVQLWLVGQHGEAALGKRLWPARGKETELKVEVPEYLGPLLFVKLRKRHLLKDDAWFCNWISVQGPGAGDEVRFPCYRWVEGNGVLSLPEGTGRTVGEDPQGLFQKHREEELEERRKLYRWGNWKDGLILNMAGAKLYDLPVDERFLEDKRVDFEVSLAKGLADLAIKDSLNVLTCWKDLDDFNRIFWCGQSKLAERVRDSWKEDALFGYQFLNGANPVVLRRSAHLPARLVFPPGMEELQAQLEKELEGGTLFEADFSLLDGIKANVILCSQQHLAAPLVMLKLQPDGKLLPMVIQLQLPRTGSPPPPLFLPTDPPMAWLLAKCWVRSSDFQLHELQSHLLRGHLMAEVIVVATMRCLPSIHPIFKLIIPHLRYTLEINVRARTGLVSDMGIFDQIMSTGGGGHVQLLKQAGAFLTYSSFCPPDDLADRGLLGVKSSFYAQDALRLWEIIYRYVEGIVSLHYKTDVAVKDDPELQTWCREITEIGLQGAQDRGFPVSLQARDQVCHFVTMCIFTCTGQHASVHLGQLDWYSWVPNAPCTMRLPPPTTKDATLETVMATLPNFHQASLQMSITWQLGRRQPVMVAVGQHEEEYFSGPEPKAVLKKFREELAALDKEIEIRNAKLDMPYEYLRPSVVENSVAI | soluble |
| MSLGNARMYEALRDYGDRFDTVGIFTFEVDETGTITETGTSISSMLPYIQKWPHIKWLLTIMNHGIANIFTALRNNENGAKDKFLTEIIRIMNKYPWCAGVDIDLERGGGYENKDAANALFRDIYNTVKSYDATKLVNICLPGMIGVQGSVGGENWCVYADLNDYCDTAAIMSYGMAWAGSAPGPVSPRDWLEGIYDYAVSVMSPDKIFMGLPAYGWNWRIHDTPENLGITYRGVSNTYYAAKYWMTGVYNFTGDAPPQPFIPIVAYWDDYNKVPWALPHVYDYMEGWDAVSWEYPLLKGVYNRRRYLTSYGKEQKAEFGTIYIDRNGVPDEYEGNVIITDEMTSLGDAQASAEYRFEIREAGYYDIAVQLCFPYWDKNAIIVSLDGISKTFSENRLWWPYWRRVCWLTLAKGVFLQEGTHAISISGGVPGVQFYGFRVCSGFSEYPFAGEASFMLSPRRFKDVNGVMVEPDRGFKLTFEMLRRKPDSALIWYEDFRDRNILPENYWTVLDGEWDVWQDPDSTENRPYSQLEGYGKLAWKYDGFSDIHIRARLAFPQNSSGRAGVFLGDIFCCLNYDTQRVELYQGNSLLGSYSTSFSKTVDADLRANPNMYTIEMRKRGNKVRVYSGAASTLRFTVNVTGGSGYVGYCSDNRTVCELLRLGDAWVYEPYERFDVELPDGNITSFGRLARTGVTWDDEFQVFSVNNDVEESITRSEDISMDYDFFHSQLLALSCGNDYEVKIILKDINIWISRLFLGDADGFSILYYQDVDSLVYWANEAAYRWKLRGIAIWSLGQEDMRLWEALPKQEGHHHHHH | soluble |
| MVMKREVVGYTTMSEHLIDTQLTRSPFFFASANQSMLGCGVAHAFQQAIPFAELANQAKQLLQQAKRDECDNPLLFGIVPFDPKTPTRFMIPRTLYVSSSPRLNRPAHLTRQVAKLISSPSGEQYKQGVSHLLNMFHHSGLSKVVLSRAIEIATEQEIALPTLLRSLLAINHHGYTFAASLDEQRKLIGASPELLVAKRGNYLISNPLAGSRPRSQDAQENAQRRASLLNTAKDLHEHGLVVEEVERIMSRYCRNLYTPMVPSVIETETMLHLSTLLEGQVSDPEVCALQVAADLHPTPAVCGFPRESAYQAIRELEEFDRGYFTGMVGWCDARGNGEWVVTIRCAEVGSHQMKLFAGAGIVDESLPQSELEETGAKMKTILAAAGIELNDVLTA | not soluble |
| MRVENSNGQSQPAATSKTVKDNAEIYYDNDDSDRFYFHVWGGEDIHVGLYKEPVDQDEIREASLRTDEWLASELAMTGVLQRQAKGLDLGAGYGGAARFLVRKFGVSIDCLNIAPVQNKRNEEYNSQAGLADNITVKYGSFLEIPCEDNSYDFIWSQDAFLHSPDKLKVFQECARVLKPGGVMAITDPMKEDGIDKSSIQPILDRIKLHDMGSLGLYRSLAKECGLVTLRTFSRPDSLVHHYSKVKAELIKRSSEIASFCSPEFQANMKRGLEHWIEGGRAGKLTWGGMLFRKSDKI | soluble |
| AHHHHHHGSIIRGDEPEQKALLRKLYRAGNYFMMGDEAIAYGAIFAGCRFYAGYPITPSSEIAETMARELPKVGGYYLQMEDEIASIAAIIGASWTGLKAMTATSGPGFSLMQENIGYAVMTETPVVIVDVQRSGPSTGQATKGAQGDFFQARWGTHGDHPIIAVSPISVEDAFWETIRAFNIAEQLRTPVIVLFDGILGHTREQIRIPDPDEVEISYRKLPRNEEEAKLPFGDPHGDGVPPMPIFGKGYFTHVTGSTHKENGLRDVYTPEVHDRLVRRLHKKIEKNRHIYEKYNEYFTDDAEILVVSWGVSARPSLGAVKKAREEGIKAGLFVPKTVHPFPGEKMRELGKKVRAILVPEMNLGQLILEVQRFVNDDVILKGVNKIGGVPITVEEILREIRGVA | not soluble |
| EVVVVGYGTQKKVNLTGAVSAVSAEDLASKPVMSTAQALAGLAPGLSVLQTSGRPGQGATVKIRGTGTFSKAGTDPLVLIDGLSGNIDDVDPNDIQSISFLKDAASASIYGNRAANGVILIETKKGA | not soluble |
| MKPRNINNSLPLQPLVPDQENKNKKNEEKSVNPVKITMGSGLNYIEQESLGGKYLTHDLSIKIADISEEIIQQAILSAMSIYKFSITDDLMSMAVNELIKLTKIENNVDLNKFTTICTDVLSPRVTRHNKEKNKRHSTLLKNPLFNFH | not soluble |
| MAHHHHHHMKEDESDEPVQKKEYEKTFWEQIGKPKHILAPMVDLSELAFRLLCRNYNCHLTFTPMLHAKNFVEHEKYRKSYFQSCEKDEPVIAQFCGNNSKIILNAIEYIKNEVNAVDLNLGCPQQIAKKGNYGAFLLQKHDEVVNLVSDITNNCNIPITCKIRKIDQDYQKTLNLCYDLQSRNVKMITVHGRTKEEKGTNIKQCDYEIIKIIKERLNIPIIANGSIEHFEDIQKCLNYTKADAVMCAEILLEKPYFFSNQNVHTVDVVNEYYDLFLQYESNTKYLKGHLFKMLYKYFQVHTDLRDMLNNCHSLDDYVNFRSILNEKRSSGVLTESSLSWYRRYRKTE | not soluble |
| MMSIAQVRSAGSAGNFYTDKDNYYVLGSMGERWAGRGAEQLGLQGSVDKDVFTRLLEGRLPDGADLSRMQDGSNRHRPGYDLTFSAPKSVSMMAMLGGDKRLIDAHNQAVDFAVRQVEALASTRVMTDGQSETVLTGNLVMALFNHDTSRDQEPQLHTHAVVANVTQHNGEWKTLSSDKVGKTGFIENVYANQIAFGRLYREKLKEQVEALGYETEVVGKHGMWEMPGVPVEAFSGRSQTIREAVGEDASLKSRDVAALDTRKSKQHVDPEIKMAEWMQTLKETGFDIRAYRDAADQRADS | soluble |
| MQEKSKMDCHGGISGTIYEYGALTIDGEEYIPFKQYAGKYVLFVNVASYGGLTGQYIELNALQEELAPFGLVILGFPCNQFGKQEPGENSEILPTLKYVRPGGGFVPNFQLFEKGDVNGEKEQKFYTFLKNSCPPTSELLGTSDRLFWEPMKVHDIRWNFEKFLVGPDGIPIMRWHHRTTVSNVKMDILSYMRRQAALGVAENLYFQ | soluble |
| MFAELIRAGLQALIEAEATEAIGAGRYERSDGRIVHRNGHRPKTVSTTAGDIEVQIPKLRAGSFFPSLLERRRRIDKALHAVIMEAYVHGVSTRSVDDLVAAMGVQAGVSKSEVSRICAGLDTEIEAFRTRSLTHTEFPYVFCDATFCKVRVGAHVVSQALVVATGVSIDGTREVLGTAVGDSESYEFWREFLASLKARGLTGVHLVISDAHAGLKAAVAQQFSGASWQRCRVHFMRNLYTAVAAKHAPAVTVAVKTIFAHTDPEEVGAQWDRVADPLCQP | soluble |
| SYTLPSLPYAYDALEPHFDKQTMEIHHTKHHQTYVNNANAALESLPEFANLPVEELITKLDQLPADKKTVLRNNAGGHANHSLFWKGLKKGTTLQGDLKAAIERDFGSVDNFKAEFEKAAASRFGSGWAWLVLKGDKLAVVSTANHDSPLMGEAISGASGFPIMGLDVWEHAYYLKFQNRRPDYIKEFWNVVNWDEAAARFAAKK | soluble |
| MLDVQHSKFGFTKGCIIAVFLLSLSRTLNRGQLSLDRFKFWQPTSQLLALDMCLCDASALEHHHHHH | not soluble |
| MDDILVTSDLTSRYKISRKTLWSWQSADTMPRGFVCPFPPPDWPGNPNRWRSESIKEWEDKKKIN | not soluble |
| MGSDKIHHHHHHMSAALSHWRRWPSVANYGKKRFDIHQSSLKKRQGLMTPHFFGFGSLVNTATHVYGNTRPARLEGWRRTWVRTPDRSMAFLSVTPAPGHVIEGLLAAVPNGDWAALDERETGYVRVDVTPQVAHDMAPAPQISLYQVPEESHDRNARDHKILLSYLDVVLRGYREVFGDTGAEAFMATTDGWDTPILNDRATPYYPRHQVMTPDEHALHDALIAEAGAQVLAGGE | not soluble |
| MAHHHHHHMRNGPKVLIALGNELKRGAASHQCKGDVARMYVNYLRQRYSMDEWNHVSNVNSFICEKNNIILIKPVTSLEKNSGLAIKNILNYLNCEDLKNVCIILPDLYRSIGKFKYKSYTKIYEKLGPDFYNILNSNIINNVLCNHFLQLCIGVSNYPNETKNAVAIALQECLSDGELKKIFKTFQLAEEYFHKKIMNGKVITTNYIHFKEKYPAMEPQKSFRRSTASRRYILDVYRHMYK | not soluble |
| MKPIIVKKGDIRRLLKESGEIDGNDGRISVAAHILYQFGDRIVFVKAYENEDIDLKIKNRKNDYRYIKVIASQNGEFHIMDLPIGDRRIGSETLYGLIMASETFGTRLRNEILNMISFEMKRRNSIWILVDKDSHAYYPFTTHSITEIILHDVEYRFERGLIDRNLEIRVPVQFIYNYWQRYLKAKNRTPGEVWASMILQ | not soluble |
| MGSDKIHHHHHHMPEPELMDDPLQARAYAEADFSCGDEALIQRLQEYLISLCKIPSPGSMIVDLGCGPGNICERLQRLWPEVMVLGIDGAQAMLDHALQRQKAMAAELKRLTYRCSNLSSLVNQCVDLKCSAALVVSNSLLHHLHDPNLLWQVTKYLAAPGAFVFHRDLRRPLSTKHAIALQQKHMQEAPSILIRDYLASLHAAFTLEEVQSQLVHAGLDHLHVIEVEDRYLDVFGTI | not soluble |
| MGSDKIHHHHHHAAGSSSSSGSSSPSATLTPKDSQATTVFTTTNPSLTLSKVPNIDFGSNATPNGSTDLSVQAAKVDSDLEVANDGIASGWNVQVMNSAFTDSATNNSLYGAKLSFAAAGVAPANADNASPKPAMSAVSLSGDGQNQLVLSAPVKGGLGIWDTEYALSDFKLSVPAGQLPGSYVSNLTWQLSNAPQ | not soluble |
